Source: patent WO2016170039A1 (dated 2016)

Target: T1, human angiopoietin 2 (human, UniProt O15123 19-496, limits assumed)
T1 construct: Bought (R&D Systems Cat.No. 623-AN) or produced in house; also called ANG-2; human ANG-2
T1 sequence: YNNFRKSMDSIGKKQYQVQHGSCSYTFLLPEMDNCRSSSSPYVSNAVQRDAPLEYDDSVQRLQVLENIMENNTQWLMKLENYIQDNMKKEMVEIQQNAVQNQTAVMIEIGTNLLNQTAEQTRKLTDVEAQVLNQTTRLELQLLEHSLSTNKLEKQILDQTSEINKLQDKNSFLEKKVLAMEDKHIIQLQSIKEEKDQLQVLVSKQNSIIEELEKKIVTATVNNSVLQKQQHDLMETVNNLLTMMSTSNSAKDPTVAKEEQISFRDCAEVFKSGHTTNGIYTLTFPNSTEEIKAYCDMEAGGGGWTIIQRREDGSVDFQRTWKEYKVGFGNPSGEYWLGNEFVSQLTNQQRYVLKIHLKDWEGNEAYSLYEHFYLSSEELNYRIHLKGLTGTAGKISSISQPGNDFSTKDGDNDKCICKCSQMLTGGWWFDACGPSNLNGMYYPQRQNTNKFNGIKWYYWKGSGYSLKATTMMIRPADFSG
Assay: ANG-2/Tie2 receptor interaction ELISA; antibody pre-incubated with ANG-2; the IC50 (Table 2) is not given

B1: <ANG-2> LC06 (antibody, IgG1, V domains shown)
VH: not shown
VL: QPGLTQPPSVSVAPGQTARITCGGNNIGSKSVHWYQQKPGQAPVLVVYDDSDRPSGIPERFSGSNSGNTATLTISRVEAGDEADYYCQVWDSSSDHYVFGTGTKVTVLG
B1: binds.
